B1: DptD (S. enterica serovar Cerro 87) (enzyme)
chain: MRANRLCLSMRKMNVLIKQLVLHNFRVFCGTHTIDLAPRKRPHEVNPRPIVLFGGLNGAGKTSILSAIRLALYGRLAFGPAMQQQEYVEQLGALVHNGTYTAERPDEAAVELTFTYNQNGHETEFTVTRSWKKGKKDRLSLQQDGQPRSELSYDQCQGFLNELIPHGVADLFFFDGEKIAELAEDESGNILRTAVRRLLGLDLIARLQNDLMIFIKRQQTAQLGGSQQQQVEALEAKIKTLAGQAEKLLEEADFVNSRIEFLSQDIIRHEGLLNAQGGAFAQTKAQEKQKVETLLKEKERLEKALRQECDGSLPYALAPNTLSRLLEKIANEAQIKQAKIFETELNQFLTQLKNDIAFRSSSESSTRAIATEAITNNLDAYMATKPKGDLLFDISEREAGMLQQSIEQDSKKAWQRFDMYRHQLADIEQQLEQAAANIARAPEDEQLMDLFAALRDLDHKREKQRQKYRSLLEEAKRTKQQQLDCVRQVQKAHDITRSQHGLSSAFKNAQETINLLDYYSNVLTQARVKKLSANFEIAYHKLARKEDLQLNAHINPQTFDVELVDEKGSVINRKLLSAGEKQIYAIAILEALAKTSGRDFPVIIDTPLGRLDSQHRDKLINHYFPEASHQVVLLSTDTEVDERYFVDRLRDDISHAYEIVFNAHTKSSALKPGYFWELTKEAV
notes: DptD (77 kDa), phosphorothioate-modifying protein of Salmonella enterica serovar Cerro 87; expressed from the coding region of the dptC/D/E operon; also called PT-modifying protein D; source: E. coli BL21 (DE3), co-overexpressed with His-DptC and DptE from pET-28a(+); in lysate, then co-purified with His-DptC (nickel column, gel filtration)
B2: DptE (S. enterica serovar Cerro 87) (natural protein)
chain: MLPNRMVLSRQTEDQLKKLKGYTGITPNVAARLAFFRSVESEFRYSPERDSKKLDGSLVLDKITWLGETLQATELVLKMLYPQLEQKILIKAWAAHVDDGIAALRNYRSLKDFSKNI
notes: DptE (13 kDa), phosphorothioate-modifying protein of Salmonella enterica serovar Cerro 87; expressed from the coding region of the dptC/D/E operon; also called PT-modifying protein E; source: E. coli BL21 (DE3), co-overexpressed with His-DptC and DptD from pET-28a(+); in lysate, then co-purified with His-DptC (nickel column, gel filtration)
B3: DptC with N-terminal His-tag (S. enterica serovar Cerro 87) (enzyme)
chain: MSKLVQAYDLAEYEDFINQEQFAGRPLAEYVAEVQRIYCADKRPWVIGYSGGKDSSAVITLVYLALLGLPPEMRSKDVFIVSSDTLVETPVVVDLIKKTMLQIEAGAKRNGLPITQHAVTPKTNETFWVNLLGKGYPAPTRSFRWCTERMKINPVSDFIKDKVSQFDEVIVVLGSRSSESASRAQVIAKHKIDGSRLARHTTLANAFIYTPIDTWDVEDVWKLLRGAFRYAPEDIDEWESPWGGNNRPLWTLYMDSSAQGECPLVIDESTPSCGNSRFGCWTCTVVTKDKAMESLIKNGEEWMSPLLKYRDLLAFTTDPANKDTYRNYKRRTGKVSYQYAKDGEDRSAERKHVPGPYWLKYRQQWLKDLLEIERDLNAQGHTITLITQPELHAIRQEWLKDPNEPDWHDTLPEIYREVYQQDLNWVVDDQSRFDASDADLLAQITQGFDVVPEMVMKLIELETSMEGLSRRQGIFDKLGTILKQDWGSLEEIQQQQATLQKRNDRDIHQDEVEKLEAELQTLQRRIIDAGESSVLIDEENERAH
notes: DptC, phosphorothioate-modifying protein of Salmonella enterica serovar Cerro 87; coding region of the dptC/D/E operon amplified from genomic DNA; the upstream primer begins at the ATG of dptC; also called His-Tag labeled DptC; labelled DptC; source: E. coli BL21 (DE3), co-overexpressed with DptD and DptE from pET-28a(+); in lysate, then purified (nickel HiTrap chelating column, Superdex gel …)

Molecular target: the molecule itself
Test: SEC + other: densitometry of SDS-PAGE bands; ~600 kDa gel filtration fraction of the DptC/D/E complex resolved on Coomassie-stained SDS-PAGE, bands quantified by ImageJ and normalised by molecular mass; copy number worked out from the ~600 kDa mass and the equimolar amounts

Protein	stoichiometry N
B1	4
B2	4
B3	4

Source: paper PMC4515589, “In vitro analysis of phosphorothioate modification of DNA reveals substrate recognition by a multiprotein complex” (Scientific Reports, 2015)
